Laboratory results: the RNAGym collection of RNA variant scans (doi:10.7554/elife.90254)

B1: OR4K15 (parent)
chain: GUUAACGGUCAUAGGCCAUGGAAACUAGGAGCACCAUUUCGCUGCCAGUGAAGAAAUGAACAAAGAAAAUCUGGGCCAGGCAGGCAUCAAAAGAAAUAGUCUUGCGCUCAACCAGAAAGUCUGUAAUCAUUUUAAGGGUA

Variants of: B1
Assay: self-cleavage, relative activity (ratio to wild type); higher = more cleavage; in vitro, sequencing; the parent is a self-cleaving ribozyme

Variant	self-cleavage
GUUAACGGUCAUAGGCCAUGGAAGCUAGGAGCACCACUUCGCUGCCAGUGAAGAAAUGAACAAAGAAAAUCUGGGCCAGGCAGGCAUCAAAAGAAAUAGUCUUGCGCUCAACCAGAAAGUCUGUAAUCAUUUUAAGGGUA [A24G U37C]	1.12
GUUAACGGUCAUAGGCCAUGGAAGCUAGGAGCACCAUUUCGCUGCCAGUGAAGAAAUGAACAAAGAAAAUCUGGGCCAGGCAGGCAUCAAAAGAAAUAGUCUUGCGCUCAACCAGAAAGCCUGUAAUCAUUUUAAGGGUA [A24G U120C]	0.35
GUUAACGGUCAUAGGCCAUGGAAGCUAGGAGCACCAUUUCGCUGCCAGUGAAGAAAUGAACAAAGAAAAUCUGGGCCAGGCAGGCAUCAAAAGAAAUAGUCUUGCGCUCAACCAGAAAGUCUGUAAUCAUUUUAACGGUA [A24G G136C]	1.47
GUUAACGGUCAUAGGCCAUGGAAGCUAGGAGCACCAUUACGCUGCCAGUGAAGAAAUGAACAAAGAAAAUCUGGGCCAGGCAGGCAUCAAAAGAAAUAGUCUUGCGCUCAACCAGAAAGUCUGUAAUCAUUUUAAGGGUA [A24G U39A]	1.45
GUUAACGGUCAUAGGCCAUGGAAGCUAGGAGCACCAUUUCGCUGCCAGUGAAGAAAUGAACAAAGAAAAUCUGGGCCAGGCAGGCAUCAAAAGAAAUAGUCUUGCGCUCAACCAGAAAGUCUGUAUUCAUUUUAAGGGUA [A24G A126U]	0.98
GUUAACGGUCAUAGGCCAUGGAAGCUAGGAGCACCAUUUCGCUGCCAGUGAAGAAAUGAACAAAGAAAAUCUGGGCCAGGCAGGCAUCAAAAGAAAUAGUCUUGUGCUCAACCAGAAAGUCUGUAAUCAUUUUAAGGGUA [A24G C105U]	0.26
GUUAACGGUCAUAGGCCAUGGAAGCUAGGAGCACCAUUUCGCUGCCAGUGAAGAAAUGAACAAAGAAAAUCUGGGCCAGGCAGGCAUCAAAAGAAAUAGCCUUGCGCUCAACCAGAAAGUCUGUAAUCAUUUUAAGGGUA [A24G U100C]	1.97
GUUAACGGUCAUAGGCCAUGGAAGCUAGGAGCACCAUUUCGCUGCCAGUGAAGAAAUGAACAAAGAAAAUCUGGACCAGGCAGGCAUCAAAAGAAAUAGUCUUGCGCUCAACCAGAAAGUCUGUAAUCAUUUUAAGGGUA [A24G G75A]	0.15
GUUAACGGUCAUAGGCCAUGGAAGCUAGGAGCACCAUUUCGCUGCCAGUGAAGAAAUGAACAAAGAAAAUCUGGGCCAGGCAGGCAUCAAAAGAAAUAGUCUUGCGCUCAACCAGAAAGUCUGUAAUCAUUUUUAGGGUA [A24G A134U]	0.93
GUUAACGGUCAUAGGCCAUGGAAGCUAGGAGCACCAUUUCGCUGCCAGUGAAGAAAUGAACAAAGAAAACCUGGGCCAGGCAGGCAUCAAAAGAAAUAGUCUUGCGCUCAACCAGAAAGUCUGUAAUCAUUUUAAGGGUA [A24G U70C]	0.53
GUUAACGGUCAUAGGCCAUGGAAGCUAGGAGCACCAUUUCGCUGCCAGUGAAGAAACGAACAAAGAAAAUCUGGGCCAGGCAGGCAUCAAAAGAAAUAGUCUUGCGCUCAACCAGAAAGUCUGUAAUCAUUUUAAGGGUA [A24G U57C]	1.51
GUUAACGGUCAUAGGCCAUGGAAGCUAGGAGCACCAUCUCGCUGCCAGUGAAGAAAUGAACAAAGAAAAUCUGGGCCAGGCAGGCAUCAAAAGAAAUAGUCUUGCGCUCAACCAGAAAGUCUGUAAUCAUUUUAAGGGUA [A24G U38C]	1.46
GUUAACGGUCAUAGGCCAUGGAAGCUAGGAGCACCAUUUCGCUGCCAGUGAAGAAAUGAACAAAGAAAAUCUGGGCCAAGCAGGCAUCAAAAGAAAUAGUCUUGCGCUCAACCAGAAAGUCUGUAAUCAUUUUAAGGGUA [A24G G79A]	0.18
GUUAACGGUCAUAGGCCAUGGAAGCUAGGAGCACCAUUUCGCUGCCAGUGAAGAAAUGAACAAAGAAAAUCUGGGCUAGGCAGGCAUCAAAAGAAAUAGUCUUGCGCUCAACCAGAAAGUCUGUAAUCAUUUUAAGGGUA [A24G C77U]	1.55
GUUAACGGUCAUAGGCCAUGGAAGCUAGGAGCACCAUUUCGCUGCCAGUGAAGAAAUAAACAAAGAAAAUCUGGGCCAGGCAGGCAUCAAAAGAAAUAGUCUUGCGCUCAACCAGAAAGUCUGUAAUCAUUUUAAGGGUA [A24G G58A]	0.4
GUUAACGGUCAUAGGCCAUGGAAGCUAGGAGCACCAUUUCGCCGCCAGUGAAGAAAUGAACAAAGAAAAUCUGGGCCAGGCAGGCAUCAAAAGAAAUAGUCUUGCGCUCAACCAGAAAGUCUGUAAUCAUUUUAAGGGUA [A24G U43C]	1.37
GUUAACGGUCAUAGGCCAUGGAAGCUAGGAGCACCAUUUCGCAGCCAGUGAAGAAAUGAACAAAGAAAAUCUGGGCCAGGCAGGCAUCAAAAGAAAUAGUCUUGCGCUCAACCAGAAAGUCUGUAAUCAUUUUAAGGGUA [A24G U43A]	1.29
GUUAACGGUCAUAGGCCAUGGAAGCUAGGAGCACCAUUUCGCUGCCAGUGAAGAAAUGAACAAAGAAAAUCUGGGCCAGGCAGGCACCAAAAGAAAUAGUCUUGCGCUCAACCAGAAAGUCUGUAAUCAUUUUAAGGGUA [A24G U87C]	1.18
GUUAACGGUCAUAGGCCAUGGAAGCUAGGAGCACCAUUUCGCUGCCAGUGAAGAAAUGAACAAAGAAAAUCUGGGCCAGGCAGGCAUCAAAAGAAAAAGUCUUGCGCUCAACCAGAAAGUCUGUAAUCAUUUUAAGGGUA [A24G U97A]	1.79
GUUAACGGUCAUAGGCCAUGGAAGCUAGGAGCACCAUUUCGCUGCCAGUGAAGAAAUGAACAAAGAAAAUCUGGGCCAGGCAGGCAUCAAAAGAAAUAGUCUUGCGCACAACCAGAAAGUCUGUAAUCAUUUUAAGGGUA [A24G U108A]	0.04
GUUAACGGUCAUAGGCCAUGGAAGCUAGGAGCACCAUUUCGCUGCCAGUGAAGAAAUGAACAAAGAAAAUCUGGGCCAGGCAGGCAUCAAAAGAAAUAGUCUUGCGCCCAACCAGAAAGUCUGUAAUCAUUUUAAGGGUA [A24G U108C]	0.03

Variant	self-cleavage
GUUAACGGUCAUAGGCCAUGGAAGCUAGGAGCACCAUUUCGCUGCCAGUGAAGAAAUGAACAAAGAAAAUCUGGGCCAGGCAGGCAUCAAAAGAAAUAGUCUUGCGCUCAACCAGAAAGUCUGUAAUCAUUUUAAGGAUA [A24G G138A]	1.18
GUUAACGGUCAUAGGCCAUGGAAGCUAGGAGCACCAUUUCGCUGCCAGUGAAGAAAUGAACAAAGAAAAUCUGGGCCAGGCAGGCAUCAAAAGAAAUAGUCUUGCGCUCAACCAGAAAGUCUAUAAUCAUUUUAAGGGUA [A24G G123A]	1.48
GUUAACGGUCAUAGGCCAUGGAAGCUAGGAGCACCAUUUCGCUGCCAGUGAAGAAAUGAACAAAGAAAAUCUGGGCCAGGCAGGCAUCAAAAGAAAUAGUCUUGCGCUCAACCAGAAUGUCUGUAAUCAUUUUAAGGGUA [A24G A118U]	0.51
GUUAACGGUCAUAGGCCAUGGAAGCUAGGAGCACCAUUUCGCUGCCAGUGAAGAAAUGAACAAAGAAAAUCUGGGCCAGGCAGGCAUCAAAAGAAAUAGUCUUGCGCUCAAUCAGAAAGUCUGUAAUCAUUUUAAGGGUA [A24G C112U]	0.02
GUUAACGGUCAUAGGCCAUGGAAGCUAGGAGCACCAUUUCGCUGCCAGUGAAGAAAUGAACAAAGAAAAUCUGGGCCAGGCAGGCAUCAAAAGAAAUAGUCUUGCGCUCAACCAGAAAGUCUGUGAUCAUUUUAAGGGUA [A24G A125G]	0.43
GUUAACGGUCAUAGGCCAUGGAAGCUAGGAGCACCAUUUCGCUGCCAGUGAAGAAAUGAACAAAGAAAAUCUGGGCCAGGCAGGCAUCAAAAGAAAUAGUCCUGCGCUCAACCAGAAAGUCUGUAAUCAUUUUAAGGGUA [A24G U102C]	1.48
GUUAACGGUCAUAGGCCAUGGAAGCUAGGAGCACCAUUUCGCUGCCAGUGAAGAAAUGAACAAAGAAAAUCUGGGCCAGGCAGGCAUCAAAAGAAAUAGUCAUGCGCUCAACCAGAAAGUCUGUAAUCAUUUUAAGGGUA [A24G U102A]	0.51
GUUAACGGUCAUAGGCCAUGGAAGCUAGGAGCACCAUUUCUCUGCCAGUGAAGAAAUGAACAAAGAAAAUCUGGGCCAGGCAGGCAUCAAAAGAAAUAGUCUUGCGCUCAACCAGAAAGUCUGUAAUCAUUUUAAGGGUA [A24G G41U]	1.18
GUUAACGGUCAUAGGCCAUGGAAGCUAGGAGCACCAUUUCACUGCCAGUGAAGAAAUGAACAAAGAAAAUCUGGGCCAGGCAGGCAUCAAAAGAAAUAGUCUUGCGCUCAACCAGAAAGUCUGUAAUCAUUUUAAGGGUA [A24G G41A]	1.45
GUUAACGGUCAUAGGCCAUGGAAGCUAGGAGCACCAUUUCGCUGCCAGUGAAGAAAUGAACAAAGAAAAUCUGGGCCAGGCAGGCAUCAAAAAAAAUAGUCUUGCGCUCAACCAGAAAGUCUGUAAUCAUUUUAAGGGUA [A24G G93A]	0.88
GUUAACGGUCAUAGGCCAUGGAAGCUAGGAGCACCAUUUCGCUGCCAGUGAAGAAAUGAACAAAGAAAAUCCGGGCCAGGCAGGCAUCAAAAGAAAUAGUCUUGCGCUCAACCAGAAAGUCUGUAAUCAUUUUAAGGGUA [A24G U72C]	0.27
GUUAACGGUCAUAGGCCAUGGAAGCUAGGAGCACCAUUUCGCUGCCAGUGAAGAAAUGAACAAAGAAAAUCUGGGCCAGGCAGGGAUCAAAAGAAAUAGUCUUGCGCUCAACCAGAAAGUCUGUAAUCAUUUUAAGGGUA [A24G C85G]	0.97
GUUAACGGUCAUAGGCCAUGGAAGCUAGGAGCACCAUUUCGCUGCCAGUGAAGAAAUGAACAAAGAAAAUCUGGGCCAGGCAGGUAUCAAAAGAAAUAGUCUUGCGCUCAACCAGAAAGUCUGUAAUCAUUUUAAGGGUA [A24G C85U]	0.95
GUUAACGGUCAUAGGCCAUGGAAGCUAGGAGCACCAUUUCGCUGCCAGUGAAGAAAUGAACAAAGAAAAUCUGGGCCAGGCAGGCAUCAAAAGAAAUAGUCUUGCGCUCAACCAGAAAGUCCGUAAUCAUUUUAAGGGUA [A24G U122C]	0.84
GUUAACGGUCAUAGGCCAUGGAAGCUAGGAGCACCAUUUCGCUGCCAGUGAAGAAAUGAACAAAGAAAAUCUGGGCCAGGCAGGCAUCAAAAGAAAUAGUCUUGCGCUCAACCAGAAAGUCAGUAAUCAUUUUAAGGGUA [A24G U122A]	1.19
GUUAACGGUCAUAGGCCAUGGAAGCUAAGAGCACCAUUUCGCUGCCAGUGAAGAAAUGAACAAAGAAAAUCUGGGCCAGGCAGGCAUCAAAAGAAAUAGUCUUGCGCUCAACCAGAAAGUCUGUAAUCAUUUUAAGGGUA [A24G G28A]	1.11
GUUAACGGUCAUAGGCCAUGGAAGCCAGGAGCACCAUUUCGCUGCCAGUGAAGAAAUGAACAAAGAAAAUCUGGGCCAGGCAGGCAUCAAAAGAAAUAGUCUUGCGCUCAACCAGAAAGUCUGUAAUCAUUUUAAGGGUA [A24G U26C]	0.81
GUUAACGGUCAUAGGCCAUGGAAGCUAGGAGCACCAUUUCGCUGCCAGUGAAGAAAUGAACAAAGAAAAUCUGGGCCAGGCAGGCAUUAAAAGAAAUAGUCUUGCGCUCAACCAGAAAGUCUGUAAUCAUUUUAAGGGUA [A24G C88U]	0.95
GUUAACGGUCAUAGGCCAUGGAAGCUAGGAGCACCAUUUCGCUGCCAGUGAAGAAAUGAACAAAGAAAAUCUGGGCCAGCCAGGCAUCAAAAGAAAUAGUCUUGCGCUCAACCAGAAAGUCUGUAAUCAUUUUAAGGGUA [A24G G80C]	0.1
GUUAACGGUCAUAGGCCAUGGAAGCUAGGAGCACCAUUUCGCUGCCAGUGAAGAAAUGAACAAAGAAAAUCUGGGCCAGGCAGGCAUCAAAAGAAAUAGUCUUACGCUCAACCAGAAAGUCUGUAAUCAUUUUAAGGGUA [A24G G104A]	0.04
